Data on two substances can be found in US20250230251A1.

For the experiment, the target named is extracellular matrix (ECM) proteins. The experiment in a line: ECM (Matrigel) ELISA, 1 µM antibody. On the technique in general: An ELISA detects its analyte on a solid surface through an enzyme-linked reagent.

As for high control mAb (antibody), the ECM score is 24.2.
To low control mAb (antibody) belongs 1.1.
